One test has as its target human MASP-1 (human) (UniProt P48740). As to the kind of experiment: cell-based or functional assay.
The target in the next test is human MASP-2 (human) (UniProt O00187). Nature of the test: cell-based or functional assay.

Two substances from patent US20130344073A1 can be followed below.

Chain of human MASP-1 (human) (P48740 other isoform, or with tags, fused parts or gaps): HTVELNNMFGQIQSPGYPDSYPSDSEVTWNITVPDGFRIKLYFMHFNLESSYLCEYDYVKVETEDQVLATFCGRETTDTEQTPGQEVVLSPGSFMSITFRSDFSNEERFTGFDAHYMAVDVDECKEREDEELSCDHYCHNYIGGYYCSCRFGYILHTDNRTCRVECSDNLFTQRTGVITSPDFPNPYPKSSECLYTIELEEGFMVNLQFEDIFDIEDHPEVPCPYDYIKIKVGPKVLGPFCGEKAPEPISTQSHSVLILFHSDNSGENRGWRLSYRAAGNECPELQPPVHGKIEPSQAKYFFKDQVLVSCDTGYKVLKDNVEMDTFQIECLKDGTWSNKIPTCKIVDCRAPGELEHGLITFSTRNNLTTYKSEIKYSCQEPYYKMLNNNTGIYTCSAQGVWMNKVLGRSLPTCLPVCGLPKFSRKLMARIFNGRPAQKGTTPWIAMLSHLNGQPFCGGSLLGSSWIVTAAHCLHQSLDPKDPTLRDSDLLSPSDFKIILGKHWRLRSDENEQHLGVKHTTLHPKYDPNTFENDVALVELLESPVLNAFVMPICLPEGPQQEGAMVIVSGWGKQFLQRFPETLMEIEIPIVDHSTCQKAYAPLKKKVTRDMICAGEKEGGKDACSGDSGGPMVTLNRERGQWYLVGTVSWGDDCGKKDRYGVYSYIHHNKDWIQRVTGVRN
Chain of human MASP-2 (human) (O00187 16-686): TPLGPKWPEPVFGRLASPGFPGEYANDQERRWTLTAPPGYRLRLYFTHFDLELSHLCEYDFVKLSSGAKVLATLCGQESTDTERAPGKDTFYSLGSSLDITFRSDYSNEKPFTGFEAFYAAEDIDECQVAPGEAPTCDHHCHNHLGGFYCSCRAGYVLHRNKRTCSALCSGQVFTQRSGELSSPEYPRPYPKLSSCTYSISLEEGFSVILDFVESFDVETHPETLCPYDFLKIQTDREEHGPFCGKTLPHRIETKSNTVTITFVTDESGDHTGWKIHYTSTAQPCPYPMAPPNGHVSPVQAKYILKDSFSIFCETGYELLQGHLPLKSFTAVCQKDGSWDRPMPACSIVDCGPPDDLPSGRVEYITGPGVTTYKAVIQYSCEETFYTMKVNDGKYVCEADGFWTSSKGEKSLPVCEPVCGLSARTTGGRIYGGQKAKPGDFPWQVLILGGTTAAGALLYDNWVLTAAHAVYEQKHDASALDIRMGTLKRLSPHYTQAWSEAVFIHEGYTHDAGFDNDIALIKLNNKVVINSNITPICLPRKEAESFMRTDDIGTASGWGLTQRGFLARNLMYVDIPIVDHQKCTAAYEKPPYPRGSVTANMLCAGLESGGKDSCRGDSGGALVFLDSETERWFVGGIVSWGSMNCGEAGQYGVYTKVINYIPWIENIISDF

In the test with human MASP-1 (human), “SGMI-1Fc, mature polypeptide fusion comprising SGMI-1, linker and human IgG1-Fc (Fc fusion)” displayed a C3b deposition from 1% normal human serum on mannan (IC50) of 27 nM.
In the test with human MASP-2 (human), “SGMI-2Fc, mature polypeptide fusion comprising SGMI-2, linker and human IgG1-Fc (Fc fusion)” yielded a C3b deposition from 1% normal human serum on mannan (IC50) of 300 nM.
